This series can be described thus: soluble on expression in E. coli; label from the status in PepcDB or PDB records.
As for “MDRRIAMSLQVLGAGLGRTGTLSLKFALEHLGFGPCYHATEVAANMRTALPLWNAAERGAADWSAIFAGYRSSTDHPGCYYWRQLIEVYPQAKVVLTVRDPDSWFESVTQTILMPGRKSTFVGPEGETFSTFLKQQMGGRSQDRAFMVDYFNRWNQAVIDAVPSDRLLVFSSRQGWAPLCGFLSVPVPHKPYPHLHARPRLRWFTRGLRLPDDVAARERHVREYLQYLREDLFGLEHHHHHH”, the “soluble on expression in E. coli” value was “soluble”. The entry for “MGSDKIHHHHHHMAEWAGGQGTQEQAVDKGPVTTDRPRPDRISPMNTARRLLRYLGHQRLPHVVVQIGCEILGAQRGALYLLDQNQEVTLIAQYPDDKDVQVPDDLDEARLSWHTLHDFLPQLVDCAHDHEARFHYCSGGDCWLTLSIPLQWEGQNIAVVQLSYKPDVTIDQTSMLGLVYEYAELAALTLVQHWRCIHPAHSSGTQAVPPSSLTNDYSFSSGVSLALAVSEAERARIARDLHDGARSAILGVQLHLEALRLACMQGDSLAIQDHLARGRAALDAIEQELSHIVRDLYPPQVGEADFPTVLVNLSERWSAATRIPVEYAFAPNIPVLETAQVIALYRIVQEALANCNRHAQASRVTISLACADDTLLLTVADNGRGGANLRGGGIGLLSMAQRAHAIGASFHIDSPPDQGTRIEVKLPLRRREPDVHVCSGDCHEGADE” is “not soluble”.

For the sequence “NLRSIIESPSFKNAESKLTVAMGYRINNEPLLMDIAKTPHALIAGATGSGKSVCINSILMSLLYKNHPEELRLLLIDPKMVELAPYNGLPHLVAPVITDVKAATQSLKWAVEEMERRYKLFAHYHVRNITAFNKKAPYDERMPKIVIVIDELADLMMMAPQEVEQSIARIAQKARACGIHMLVATQRPSV”, the “soluble on expression in E. coli” value was “not soluble”. On to “MIVRAINYESLHIDDRFGSIEELKTKISQKYGIPINSQHIIFNGKFYVLGIFDSPLTVSSDTYTNPLGCFGCPDSLFNDLAGNGMTTDEIREYAFPHKDDPAKREGPDLSSVIDTRAIAKRITENRYEDAYKIPNDLSEKEKTIIMESSGEYIDLVLKQIKEILRSNTKY”, for which the “soluble on expression in E. coli” value was “not soluble”.

“MKLERILPFSKTLIKQHITPESIVVDATCGNGNDTLFLAEQVPEGHVYGFDIQDLALENTRDKVKDFNHVSLIKDGHENIEHHINDAHKGHIDAAIFNLGYLPKGDKSIVTKPDTTIQAINSLLSLMSIEGIIVLVIYHGHSEGQIEKHALLDYLSTLDQKHAQVLQYQFLNQRNHAPFICAIEKIS”: the “soluble on expression in E. coli” value is “not soluble”. On to “MKAVKATLMYDGLGNIEKNVYIIFDKDIVNITREKPKDVEVVAEGVVTPAFIDAHSHIGMDRYGEPYQESELNEQMDSVLPLADALYSIYMDDKAFKHSIEFGVLYSSILPGSGNIIGGKGVLIRNYGRDIEDAFIKYVGVKAAFGYNPRSTTNWKGLRPSTRMGAIGILFNWLIKTKKTISLLEKGKKDPEEIDPVIEALIPVLKGEMPLRVHAHKEDDIAVLLMIKRKFNLKVTVEHAADVHSKETFEKIKREGVPLVYGPLDAHPYKVELKHEDWKNAKYLLEVKPFFGLMSDHPFSIQANLYLQLRHFIRLGMSKAEAIKLITYNNAKILGIEDKLGSLEKGKWASLVVWNGDPFNLENYPTHVFAEGELIHEANL”, for which the “soluble on expression in E. coli” value is listed as “soluble”.

For the sequence “MKRGTITIDGKGNVHIPSTPVWMSACEIADLFGAFSGKVSVQIKTIFKEGLLMETEAMRTIQSGQGFIDLYGIEMITMLSFRIATPQAKTLRRWIIDRLSGKNSSSSPLIVCYTLGKRYN”, the “soluble on expression in E. coli” value was “not soluble”.

For the sequence “MNYGFNFLHNTIIMMIIRSIIFRNFLFSISQLSQLNNVNTCSIIFHSLFTHFQITSHFTQMAAASSAPHQMQVRVTFYTSHNPQSVLMILKNDQALQQISEKARELFPSADYRLYYGDVNGPIFEFTNSDQIMSKIRITTFSRTPQLFVRLETVPLRPTALPSVSTETAKKASDADRESKSRSSLKRIENNQELTLKTLEKLQKELSRVSALETMVADLHAKEREPVVEEVQKPFPPVKHSASCDACLGDIIGHRFKCLECADYDLCEKCERKSLHYEHAMIRIVEPKKTMIPSYVTSNSPNNVFPTYMQHKIQQPQTIKGINKTVITRLVPSHQVNPAPMPQAPPVSTPVPFPPSPTIGNGAVPKPAQEPRIPPSPTSALPPPQFFNEETRAAIINSAALLKETFSTLSRSFLDLADGAQANMDKKIIERSTMEAGMTKFEEKMDNLKRHCEEKYLGTETAEAEKSEESSKKQADSLSGPKIKKAKKKSCYKKSAERLFTMQLAAAAAEQARLEQEAKKRAEASSAELQRKLAELNVKESQSKSEENIADFVLYDLYGNSLEALLRGRSSSRIADPPTTPNTEPATTELASTTSATPAVTAPASIVPVTPTAPIVETLIVPPLPPVESNPEEVTPMVTAPISIHSSFENISSDFESLSPSWGGYPDLEAAQRLEVIDDNLLDFSDVAVEAQEAQEAQEEARPEPEQSLPPFNEETEKTFDRLLEMGFSYNVTVAAIRANGSNLEMCLQALLH”, the “soluble on expression in E. coli” value was “not soluble”.

For the sequence “MAKLDFHIVKRIREQIANGGTRVALKHKVAGAWQGITWEQFGQQVDTLSLALLAQGLGVQDKIGIFSNNMPQWTIADFAALQLRGVTVPIYPTNTAAQSAYIIDNADVKVLFVGEQPQFDAAVSIFEQCEQLELIVAMSDDIELGDHDFAISWKDFVAKGDTSHQAELDERLEQAKVDDLLTLIYTSGTTGQPKGVMLDYGNIAAQLEGHDQRLSLSQDDVSLCFLPLSHVFERAWTFYVLYKGATNCYLQDTMQVRDALSEVRPTVMCAVPRFYEKIFSAIHEKVSRAPIHRKIMFTWAVNMGAKMALCHQEKRKPSMMLRKAHA”, the “soluble on expression in E. coli” value is listed as “not soluble”. On to “MSLTQLQITAFGDPSVLRLNPSLDKVPADGEVRVRICFAGVNPIDAKTRAGLGWAAAQNKDKLPWTPGYDVAGVVEKIGPGVTALAEGDRVCGMVGFPLAAGGYGESVVAREEELVRLEDIGLRQGAALPLAGLTAWQGLFEHGALKAGQRVLILAGAGGVGHLAVQFASAYGAEVVATASRDNHSFLHGLGASRMVDYHDADWVAQVGQVELVLDLVGGESGKAALACVKPGGRLVTVPTISAQQIKDAAAGSAIEVLGMLVHPDRQQLSQMLTLLRQGEVQVTVAGEYALAEGALAHQAIEQGHVRGKLLLRMPAAEGHHHHHH”, for which the “soluble on expression in E. coli” value is recorded as “soluble”. As to “QLKNNAAIQIDRVDNTEITETVSFDAEPTYVDDPEAPAGDETVVEEGAPGTKEVTRTVTTVNGQEESSTVINEVEITAAKPATISRGTKT”, the “soluble on expression in E. coli” value is “not soluble”.

Regarding “DDDDEEEDDFVYFNFNKEKEEKNKNSIHPNDFQIYNSLKYKYHPEYQYLNIIYDIMMNGNKQSDRTGVGVLSKFGYIMKFDLSQYFPLLTTKKLFLRGIIEELLWFIRGETNGNTLLNKNVRIWEANGTREFLDNRKLFHREVNDLGPIYGFQWRHFGAEYTNMYDNYENKGVDQLKNIINLIKNDPTSRRILLCAWNVKDLDQMALPPCHILCQFYVFDGKLSCIMYQRSCDLGLGVPFNIASYSIFTHMIAQVCNLQPAQFIHVLGNAHVYNNHIDSLKIQLNRIPYPFPTLKLNPDIKNIEDFTISDFTIQNYVHHEKISMDMAA”, the “soluble on expression in E. coli” value is reported as “soluble”. The entry for “QVRQSPQSLTVWEGETTILNCSYENSAFDYFPWYQQFPGEGPALLIAIRSVSDKKEDGRFTIFFNKREKKLSLHITDSQPGDSATYFCAATGANTGKLTFGHGTILRVHPNIQNPDPAVYQLRDSKSSDKSVCLFTDFDSQTNVSQSKDSDVYITDATVLDMRSMDFKSNSAVAWSNKSDFACANAFNNSIIPEDTFFPS” is “soluble”; for “MSLSRGAGEAAYRQRLVAVGDLHGDIDNAKKTLQMARIIDDDSKWVASTDILVQTGDIVDRGAYADDIYRLMQSLRGQAASQGGKVVSILGNHEVMNAIGDWRYVTKGDIARFGGTKSRQHALSAEGWLGQEWLANYSTTALVPISPYPSSPTFSFTHGSLRPSYANLTPYPAAINDLGHSLLTKALTPPMAPPYPPNPYSGLPKGTTHEEADLYAEGGPLWWRGLAEREEAQVCEWAKNLKQKIGARRIIGGHTPNFEKIVARCNASVIIIDTGISSAYGGVLSALEIVYTLTPVDRRGRDHSQDPLLLSTSSESIAGLKGRFVEREEVHAIYEHSRKWLALEEREVVLDEGHHHHHH” it is “not soluble”. The entry for “MAHHHHHHMRRWLRNVRGGLLHPRAARLMVSCGKTHGLHMVSTVSRNTETEDEEIRDNESFPHQDDDDESVTEISEEMMRSLPKAPPKLRSAGSLLSTEEQEQLTRMIFKAHYAGEGMGENDRAMWYQSALEIHWLEEWAYEEFDGQTQRDVARRAVKKAVLQRVDLHKPLAYIIGHQPFYGCDIRCSPPLLCPRPETEMWTHWLVRTWLSKIPETTQPLRVLDMCCGTGCVGIAIAKHVPSAQVTAVDILDEAIGASEENAKLNGLEASRFCTLKSDMFESFLVSNSGSLTGEDTKLDLKKKEPAAEHAGSFDIIVSNPPYVLPDQYTDLPPGIKLWESKLALVGDEKREQQQYLYFQELSEFGSLLLKPKAMRNPALCAAPNIVIEVGLQAEQVASVMEKSKLWENVEIHLDYAQQMRWITASSSH” is “not soluble”; for “MIRISDAAQAHFAKLLANQEEGTQIRVFVINPGTPNAECGVSYCPPDAVEATDTALKFDLLTAYVDELSAPYLEDAEIDFVTDQLGSQLTLKAPNAKMRKVADDAPLMERVEYMLQSQINPQLAGHGGRVSLMEITEDGYAILQFGGGCNGCSMVDVTLKEGIEKQLLNEFPELKGVRDLTEHQRGEHSYY” it is “soluble”. The entry for “MEWIKQILAKHMKEDGTLDMEAANKEIDKEFPVNAVPKDQYNNLSSQLAEANKTLKSLEAKTKDNPDVQKELADLKEKADALEKENKDLKINSQVSAALQSAGAKDIDYALFKLGELELDKDGNVKDLESKVKDLKASIPDYFEKKDTLDDKSKKKTENKAGYQPIDNKLPKGKEPNEKDPFEAILSKYE” is “not soluble”; for “GPGSMSLASPSSLPPIALATQRLRTFAAQEEQAHGLTTSTALEEWATQSFEAETERINRELVQRRSQASVTFLPALYMRGRDPAADETTRLLHSTCKAFELDLRFKEIEKLDEMHAHLWTLLSAGDRTSISMEAYEQLLHDFNEWAAEHYGAQLLPPPSTVWDVSEDEDECILCRREVKEDDHEKSGGGNSSPSMSPLRPPVSLARPLSASTPPVLAATKAAPNDAPFTSGTRGASWDAVLQHVKRYRDQQRSDTSASASSFMRSHAHFEHLLRLAEDQPALGNVLYLCSVPPPRPDVQLFLSCPRNAERAVEIAAIYQTFAKQVSLVKCEAELIMWDSNNDGRLSEDEVENYVRDLAPRIAALQAMSKDMLPFYCCTVSRRLFWDLDPGNRGVLRIHSLLHSGIMDEWVSLQLMTEDDTQNWFGALVTQQLYNKFVLLDTRNTGTLNVENLRGYKKGLPTVLDDGLPPDVSPLCSLFIDRYFETNTLMTRSEMDYRKFVDFVIAVELLPQCSRPYFFWNILDMEGTGVLTPMIVNQFFRETHAKLVAAGLDVPSRETVVQEVFDLIEKAESLLITRDEFVRSPQAGLFVALLIDCLSFWTYENREQR” it is “not soluble”. For “MTFLKEYVIVSGASGFIGKHLLEALKKSGISVVAITRDVIKNNSNALANVRWCSWDNIELLVEELSIDSALIGIIHLATEYGHKTSSLINIEDANVIKPLKLLDLAIKYRADIFLNTDSFFAKKDFNYQHMRPYIITKRHFDEIGHYYANMHDISFVNMRLEHVYGPGDGENKFIPYIIDCLNKKQSCVKCTTGEQIRDFIFVDDVVNAYLTILENRKEVPSYTEYQVGTGAGVSLKDFLVYLQNTMMPGSSSIFEFGAIEQRDNEIMFSVANNKNLKAMGWKPNFDYKKGIEELLKRL”, the “soluble on expression in E. coli” value is on record as “not soluble”. The entry for “MSRRSNRTINLPAPYLKRIWLDPSQVHDREAYPFCLPIFPDDFELSFDAAITIIVGENGTGKSTILEGIAALAGYDDAGGGKGYMPVDHSDAREKMGGQLSKALRASWLPKITNGWFFRAESFFSVARYLDKAARDAGQVGPDFLSHSHGEGFLRFFEERCQRQGIFIFDEPESALSPARQIEFLKLLRRMDDSRICQVIMATHSPMLMAYPNAKLLRLGKYGLEPVTVEETDHYRLMREFCDDPRGFVEATLAELEHHHHHH” is “soluble”.

The record behind these values is the DeepSol protein solubility set.
